Experimental findings from patent publication US20230250154A1 are described below.

Changes are numbered by the printed parent chain. In names and notes the source's numbering stands.

B1: Variant A2M, bait region SEQ ID NO 142, P01023 24-1474 (protein)
chain: SVSGKPQYMVLVPSLLHTETTEKGCVLLSYLNETVTVSASLESVRGNRSLFTDLEAENDVLHCVAFAVPKSSSNEEVMFLTVQVKGPTQEFKKRTTVMVKNEDSLVFVQTDKSIYKPGQTVKFRVVSMDENFHPLNELIPLVYIQDPKGNRIAQWQSFQLEGGLKQFSFPLSSEPFQGSYKVVVQKKSGGRTEHPFTVEEFVLPKFEVQVTVPKIITILEEEMNVSVCGLYTYGKPVPGHVTVSICRKYSDASDCHGEDSQAFCEKFSGQLNSHGCFYQQVKTKVFQLKRKEYEMKLHTEAQIQEEGTVVELTGRQSSEITRTITKLSFVKVDSHFRQGIPFFGQVRLVDGKGVPIPNKVIFIRGNEANYYSNATTDEHGLVQFSINTTNVMGTSLTVRVNYKDRSPCYGYQWVSEEHEEAHHTAYLVFSPSKSFVHLEPMSHELPCGHTQTVQAHYILNGGTLLGLKKLSFYYLIMAKGGIVRTGTHGLLVKQEDMKGHFSISIPVKSDIAPVARLLIYAVLPTGDVIGDSAKYDVENCLANKVDLSFSPSQSLPASHAHLRVTAAPQSVCALRAVDQSVLLMKPDAELSASSVYNLLPEKDLTGFPGPLNDQDDEDCINRHNVYINGITYTPVSSTNEKDMYSFLEDMGLKAFTNSKIRKPKMCPQLEQYEMHGPSELEGRGSIPENFFGVEGEGEGEGKEEEGLGSVEEPHTKLRKYFPETWIWDLVVVNSAGVAEVGVTVPDTITEWKAGAFCLSEDAGLGISSTASLRAFQPFFVELTMPYSVIRGEAFTLKATVLNYLPKCIRVSVQLEASPAFLAVPVEKEQAPHCICANGRQTVSWAVTPKSLGNVNFTVSAEALESQELCGTEVPSVPEHGRKDTVIKPLLVEPEGLEKETTFNSLLCPSGGEVSEELSLKLPPNVVEESARASVSVLGDILGSAMQNTQNLLQMPYGCGEQNMVLFAPNIYVLDYLNETQQLTPEIKSKAIGYLNTGYQRQLNYKHYDGSYSTFGERYGRNQGNTWLTAFVLKTFAQARAYIFIDEAHITQALIWLSQRQKDNGCFRSSGSLLNNAIKGGVEDEVTLSAYITIALLEIPLTVTHPVVRNALFCLESAWKTAQEGDHGSHVYTKALLAYAFALAGNQDKRKEVLKSLNEEAVKKDNSVHWERPQKPKAPVGHFYEPQAPSAEVEMTSYVLLAYLTAQPAPTSEDLTSATNIVKWITKQQNAQGGFSSTQDTVVALHALSKYGAATFTRTGKAAQVTIQSSGTFSSKFQVDNNNRLLLQQVSLPELPGEYSMKVTGEGCVYLQTSLKYNILPEKEEFPFALGVQTLPQTCDEPKAHTSFQISLSVSYTGSRSASNMAIVDVKMVSGFIPLKPTVKMLERSNHVSRTEVSSNHVLIYLDKVSNQTLSLFFTVLQDVPVRDLKPAIVKVYDYYETDEFAIAEYNAPCSKDLGNADYKDDDDKGASHHHHHH
B2: Variant A2M, bait region SEQ ID NO 137, P01023 24-1474 (protein)
chain: SVSGKPQYMVLVPSLLHTETTEKGCVLLSYLNETVTVSASLESVRGNRSLFTDLEAENDVLHCVAFAVPKSSSNEEVMFLTVQVKGPTQEFKKRTTVMVKNEDSLVFVQTDKSIYKPGQTVKFRVVSMDENFHPLNELIPLVYIQDPKGNRIAQWQSFQLEGGLKQFSFPLSSEPFQGSYKVVVQKKSGGRTEHPFTVEEFVLPKFEVQVTVPKIITILEEEMNVSVCGLYTYGKPVPGHVTVSICRKYSDASDCHGEDSQAFCEKFSGQLNSHGCFYQQVKTKVFQLKRKEYEMKLHTEAQIQEEGTVVELTGRQSSEITRTITKLSFVKVDSHFRQGIPFFGQVRLVDGKGVPIPNKVIFIRGNEANYYSNATTDEHGLVQFSINTTNVMGTSLTVRVNYKDRSPCYGYQWVSEEHEEAHHTAYLVFSPSKSFVHLEPMSHELPCGHTQTVQAHYILNGGTLLGLKKLSFYYLIMAKGGIVRTGTHGLLVKQEDMKGHFSISIPVKSDIAPVARLLIYAVLPTGDVIGDSAKYDVENCLANKVDLSFSPSQSLPASHAHLRVTAAPQSVCALRAVDQSVLLMKPDAELSASSVYNLLPEKDLTGFPGPLNDQDDEDCINRHNVYINGITYTPVSSTNEKDMYSFLEDMGLKAFTNSKIRKPKMCPQLEQYEMHGPSEDLVVQIKEEEGLGSIPENFFGVSELEGRGSVEEPHTKLRKYFPETWIWDLVVVNSAGVAEVGVTVPDTITEWKAGAFCLSEDAGLGISSTASLRAFQPFFVELTMPYSVIRGEAFTLKATVLNYLPKCIRVSVQLEASPAFLAVPVEKEQAPHCICANGRQTVSWAVTPKSLGNVNFTVSAEALESQELCGTEVPSVPEHGRKDTVIKPLLVEPEGLEKETTFNSLLCPSGGEVSEELSLKLPPNVVEESARASVSVLGDILGSAMQNTQNLLQMPYGCGEQNMVLFAPNIYVLDYLNETQQLTPEIKSKAIGYLNTGYQRQLNYKHYDGSYSTFGERYGRNQGNTWLTAFVLKTFAQARAYIFIDEAHITQALIWLSQRQKDNGCFRSSGSLLNNAIKGGVEDEVTLSAYITIALLEIPLTVTHPVVRNALFCLESAWKTAQEGDHGSHVYTKALLAYAFALAGNQDKRKEVLKSLNEEAVKKDNSVHWERPQKPKAPVGHFYEPQAPSAEVEMTSYVLLAYLTAQPAPTSEDLTSATNIVKWITKQQNAQGGFSSTQDTVVALHALSKYGAATFTRTGKAAQVTIQSSGTFSSKFQVDNNNRLLLQQVSLPELPGEYSMKVTGEGCVYLQTSLKYNILPEKEEFPFALGVQTLPQTCDEPKAHTSFQISLSVSYTGSRSASNMAIVDVKMVSGFIPLKPTVKMLERSNHVSRTEVSSNHVLIYLDKVSNQTLSLFFTVLQDVPVRDLKPAIVKVYDYYETDEFAIAEYNAPCSKDLGNADYKDDDDKGASHHHHHH
B3: Variant A2M, bait region SEQ ID NO 138, P01023 24-1474 (protein)
chain: B2 chain with K686E, E687G, E689G, G690E, L691G, G692E, S693G, S702K, L704E, R707L
B4: Variant A2M, bait region SEQ ID NO 139, P01023 24-1474 (protein)
chain: SVSGKPQYMVLVPSLLHTETTEKGCVLLSYLNETVTVSASLESVRGNRSLFTDLEAENDVLHCVAFAVPKSSSNEEVMFLTVQVKGPTQEFKKRTTVMVKNEDSLVFVQTDKSIYKPGQTVKFRVVSMDENFHPLNELIPLVYIQDPKGNRIAQWQSFQLEGGLKQFSFPLSSEPFQGSYKVVVQKKSGGRTEHPFTVEEFVLPKFEVQVTVPKIITILEEEMNVSVCGLYTYGKPVPGHVTVSICRKYSDASDCHGEDSQAFCEKFSGQLNSHGCFYQQVKTKVFQLKRKEYEMKLHTEAQIQEEGTVVELTGRQSSEITRTITKLSFVKVDSHFRQGIPFFGQVRLVDGKGVPIPNKVIFIRGNEANYYSNATTDEHGLVQFSINTTNVMGTSLTVRVNYKDRSPCYGYQWVSEEHEEAHHTAYLVFSPSKSFVHLEPMSHELPCGHTQTVQAHYILNGGTLLGLKKLSFYYLIMAKGGIVRTGTHGLLVKQEDMKGHFSISIPVKSDIAPVARLLIYAVLPTGDVIGDSAKYDVENCLANKVDLSFSPSQSLPASHAHLRVTAAPQSVCALRAVDQSVLLMKPDAELSASSVYNLLPEKDLTGFPGPLNDQDDEDCINRHNVYINGITYTPVSSTNEKDMYSFLEDMGLKAFTNSKIRKPKMCPQLEQYEMHGPSEDLVVQIEGEGEGEGIPENFFGVEAIPMSIPTEPHTKLRKYFPETWIWDLVVVNSAGVAEVGVTVPDTITEWKAGAFCLSEDAGLGISSTASLRAFQPFFVELTMPYSVIRGEAFTLKATVLNYLPKCIRVSVQLEASPAFLAVPVEKEQAPHCICANGRQTVSWAVTPKSLGNVNFTVSAEALESQELCGTEVPSVPEHGRKDTVIKPLLVEPEGLEKETTFNSLLCPSGGEVSEELSLKLPPNVVEESARASVSVLGDILGSAMQNTQNLLQMPYGCGEQNMVLFAPNIYVLDYLNETQQLTPEIKSKAIGYLNTGYQRQLNYKHYDGSYSTFGERYGRNQGNTWLTAFVLKTFAQARAYIFIDEAHITQALIWLSQRQKDNGCFRSSGSLLNNAIKGGVEDEVTLSAYITIALLEIPLTVTHPVVRNALFCLESAWKTAQEGDHGSHVYTKALLAYAFALAGNQDKRKEVLKSLNEEAVKKDNSVHWERPQKPKAPVGHFYEPQAPSAEVEMTSYVLLAYLTAQPAPTSEDLTSATNIVKWITKQQNAQGGFSSTQDTVVALHALSKYGAATFTRTGKAAQVTIQSSGTFSSKFQVDNNNRLLLQQVSLPELPGEYSMKVTGEGCVYLQTSLKYNILPEKEEFPFALGVQTLPQTCDEPKAHTSFQISLSVSYTGSRSASNMAIVDVKMVSGFIPLKPTVKMLERSNHVSRTEVSSNHVLIYLDKVSNQTLSLFFTVLQDVPVRDLKPAIVKVYDYYETDEFAIAEYNAPCSKDLGNADYKDDDDKGASHHHHHH

The test concerns the target Protease Mixtures. As to the kind of experiment: cell-based or functional assay.
For the molecule B1, the Protease Inhibition (% of WT); Protease Mixtures, IGD Substrate was 140 % of WT.

For the molecule B2, the Protease Inhibition (% of WT); Protease Mixtures, IGD Substrate was 140 % of WT.

With B3, the Protease Inhibition (% of WT); Protease Mixtures, IGD Substrate was 210 % of WT.

Take B4: the Protease Inhibition (% of WT); Protease Mixtures, IGD Substrate is 190 % of WT.
